Experiment in all cases: SPR
Background: Surface plasmon resonance follows binding to a sensor surface in real time, without labels.

The target in test [1] is EVA-A(L39P) (Amblyomma americanum).
Test [2] deals with EVA-A(Y44A) (A. americanum).
For test [3], the target named is EVA-A(DN) (Amblyomma americanum).
Test [4] addresses EVA-A(21-102) (A. americanum).
Test [5] has as its target EVA-A(1-98) (A. americanum).
The target in test [6] is EVA-A(L39P) (A. americanum).
Test [7] has as its target EVA-A(DC) (Amblyomma americanum).
For test [8], the target named is EVA-A(Y44A) (Amblyomma americanum).
For test [9], the target named is EVA-A(C8) (A. americanum).

For four substances, Kd, koff and kon results are on record in PMC10349104.

A word on the Kd: it is the constant that tells how readily two partners part at equilibrium. A higher Kd goes with a looser complex. For orientation: koff means the rate constant with which the complex falls apart. In general, kon refers to a measure of how fast the partners come together. A low value points to slow association.

Where “and” joins values, the source holds several entries; their conditions need not be identical. Identical values can stand only once.

Sequence of CCL21 (O00585 24-134): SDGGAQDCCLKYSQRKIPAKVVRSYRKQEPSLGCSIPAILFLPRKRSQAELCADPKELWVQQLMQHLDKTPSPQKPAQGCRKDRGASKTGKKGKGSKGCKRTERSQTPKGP
Sequence of CCL1 (P22362 24-96): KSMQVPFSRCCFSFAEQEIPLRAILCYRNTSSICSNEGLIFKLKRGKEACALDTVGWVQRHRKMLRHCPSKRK
Sequence of CCL8 (P80075 24-99): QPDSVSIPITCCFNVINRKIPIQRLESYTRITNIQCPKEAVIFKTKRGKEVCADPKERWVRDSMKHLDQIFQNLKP
Sequence of CCL23 (P55773 22-120): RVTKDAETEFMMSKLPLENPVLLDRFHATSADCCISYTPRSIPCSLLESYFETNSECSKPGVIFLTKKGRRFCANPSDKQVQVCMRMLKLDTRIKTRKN

Regarding “CCL1 (from UniProt P22362 24-96) (ligand)”, the Kd was 44.7 nM and 48.2 nM and 79.6 nM in test [1]; 49.9 nM in test [2]; 686 nM and 369 nM and 318 nM in test [3]; 457 nM in [4]; 406 nM in [5]; 57.5 nM in test [6]. For the same substance, the Kd in [7] was 327 nM and 241 nM and 650 nM; in test [8] it was 30.2 nM and 67.9 nM and 51.6 nM. The koff in test [1] was 0.000863 s⁻¹ and 0.00063 s⁻¹ and 0.00153 s⁻¹; in test [2] it was 0.00256 s⁻¹; in test [4] it was 0.18 s⁻¹; in test [5] it was 0.00168 s⁻¹; in test [6] it was 0.00167 s⁻¹; in test [7], 0.00168 s⁻¹ and 0.00255 s⁻¹ and 0.00199 s⁻¹. In [8], the koff was 0.00285 s⁻¹ and 0.00348 s⁻¹ and 0.00135 s⁻¹. Besides, the kon in test [1] is 19300 M⁻¹ s⁻¹ and 13100 M⁻¹ s⁻¹ and 19200 M⁻¹ s⁻¹; in test [2] it was 57000 M⁻¹ s⁻¹; in test [4], 268000 M⁻¹ s⁻¹; in test [5], 6000 M⁻¹ s⁻¹; in test [6], 17000 M⁻¹ s⁻¹.
As for “CCL8 (from UniProt P80075 24-99) (ligand)”, the Kd is 2.73 nM and 2.16 nM and 2.89 nM in [1]; 3.62 nM in [2]; 328 nM and 146 nM and 34.1 nM in [3]; 169 nM in test [4]; 163 nM in [5]; 2.59 nM in test [6]. For the same substance, the Kd in test [7] is 188 nM and 89.1 nM and 212 nM; in test [8], 4.46 nM and 3.95 nM and 2.44 nM. In addition, the koff in test [1] is 0.00242 s⁻¹ and 0.00205 s⁻¹ and 0.00312 s⁻¹; in test [2], 0.00156 s⁻¹; in test [4] it was 0.0344 s⁻¹; in test [5] it was 0.0344 s⁻¹; in [6], 0.00218 s⁻¹; in test [8] it was 0.00137 s⁻¹ and 0.0015 s⁻¹ and 0.0018 s⁻¹. In addition, the kon in test [1] is 884000 M⁻¹ s⁻¹ and 949000 M⁻¹ s⁻¹ and 1.08e+06 M⁻¹ s⁻¹; in test [2] it was 474000 M⁻¹ s⁻¹; in test [4], 112000 M⁻¹ s⁻¹; in test [5] it was 173000 M⁻¹ s⁻¹; in [6] it was 971000 M⁻¹ s⁻¹; in test [8], 307000 M⁻¹ s⁻¹ and 378000 M⁻¹ s⁻¹ and 737000 M⁻¹ s⁻¹.
For “CCL21 (from UniProt O00585 24-134) (ligand)”, the Kd in [1] was 24.3 nM and 19.8 nM and 29.4 nM; in test [2], 119 nM; in test [3], 51.1 nM and 51.4 nM and 40 nM; in test [4], 47.5 nM; in [5], 17.8 nM; in test [6] it was 24.5 nM. Besides, the Kd is 30.1 nM and 12.1 nM and 11.4 nM in test [7]; 135 nM and 40.8 nM and 180 nM in [8]. Further, the koff in test [1] was 0.00331 s⁻¹ and 0.00445 s⁻¹ and 0.00676 s⁻¹; in test [2], 0.00356 s⁻¹; in test [3], 0.0125 s⁻¹ and 0.0092 s⁻¹ and 0.00995 s⁻¹; in test [4], 0.0106 s⁻¹; in test [5], 0.00233 s⁻¹; in test [6] it was 0.00484 s⁻¹. Also, the koff in test [7] was 0.00233 s⁻¹ and 0.00174 s⁻¹ and 0.00177 s⁻¹; in [8], 0.00431 s⁻¹ and 0.00219 s⁻¹ and 0.00417 s⁻¹. For the same substance, the kon was 136000 M⁻¹ s⁻¹ and 225000 M⁻¹ s⁻¹ and 230000 M⁻¹ s⁻¹ in test [1]; 36000 M⁻¹ s⁻¹ in test [2]; 245000 M⁻¹ s⁻¹ and 179000 M⁻¹ s⁻¹ and 248000 M⁻¹ s⁻¹ in test [3]; 224000 M⁻¹ s⁻¹ in [4]; 126000 M⁻¹ s⁻¹ in test [5]; 197000 M⁻¹ s⁻¹ in test [6]. Also, the kon was 77500 M⁻¹ s⁻¹ and 144000 M⁻¹ s⁻¹ and 154000 M⁻¹ s⁻¹ in test [7]; 32000 M⁻¹ s⁻¹ and 53800 M⁻¹ s⁻¹ and 23100 M⁻¹ s⁻¹ in [8].
In the case of “CCL23 (from UniProt P55773 22-120) (ligand)”, the Kd in test [2] was found to be 18.8 nM; in test [4], 0.51 nM; in test [5], 0.45 nM; in [6] it was 1.14 nM; in [9] it was 20.3 nM. The koff in test [2] turned out to be 0.00176 s⁻¹; in [4], 4e-05 s⁻¹; in [5], 2e-05 s⁻¹; in test [6], 0.00067 s⁻¹; in [9], 0.00131 s⁻¹. Moreover, the kon came out at 100000 M⁻¹ s⁻¹ in test [2]; 87000 M⁻¹ s⁻¹ in test [4]; 144000 M⁻¹ s⁻¹ in test [5]; 140000 M⁻¹ s⁻¹ in test [6]; 74000 M⁻¹ s⁻¹ in test [9].
